Biological target: histone H4 (Xenopus laevis, UniProt P62799 2-103)
Assay: cryo-EM structure

binding result: binds
B1: Dot1L(2-416) (domain or fragment)
chain: GEKLELRLKSPVGAEPAVYPWPLPVYDKHHDAAHEIIETIRWVCEEIPDLKLAMENYVLIDYDTKSFESMQRLCDKYNRAIDSIHQLWKGTTQPMKLNTRPSTGLLRHILQQVYNHSVTDPEKLNNYEPFSPEVYGETSFDLVAQMIDEIKMTDDDLFVDLGSGVGQVVLQVAAATNCKHHYGVEKADIPAKYAETMDREFRKWMKWYGKKHAEYTLERGDFLSEEWRERIANTSVIFVNNFAFGPEVDHQLKERFANMKEGGRIVSSKPFAPLNFRINSRNLSDIGTIMRVVELSPLKGSVSWTGKPVSYYLHTIDRTILENYFSSLKNPKLREEQEAARRRQQRESKSNAATPTKGPEGKVAGPADAPMDSGAEEEKAGAATVKKPSPSKARKKKLNKKGRKMAGRKRGRPKK
